Test results reported in the RNAGym collection of RNA variant scans (doi:10.7554/elife.80360).

B1: CPEB3 Ribozyme (parent)
chain: GGGGGCCACAGCAGAAGCGUUCACGUCGCGGCCCCUGUCAGAUUCUGGUGAAUCUGCGAAUUCUGCUGU

Variants of: B1
Assay: self-cleavage, relative activity (ratio to wild type); higher = more cleavage; co-transcriptional

Variant | self-cleavage
G56C A59C | 0.403
G56C A59G | 0.705
C57U G68C | 0.365
C57G C66G | 0.39
C57G C66U | 0.333
C54G C57U | 0.392
U53G C54A | 0.873
C57U U69C | 0.554
C54U A60G | 0.903
G56C A60C | 0.295
A51C C63G | 0.699
A52C A59U | 0.68
A52U U55G | 0.56
A52U U55A | 0.7
U55A G68C | 1.01
C57A A59C | 0.335
U53C U69A | 0.977
G50U U53G | 0.871
C54G G56U | 0.46
U55C U61G | 0.434
G58A U62A | 0.939
C54G C63A | 0.543
U55C A59G | 0.967
U55C A59C | 0.464

Variant | self-cleavage
C54A A60C | 0.272
U55A U67G | 0.963
U55A U67A | 0.921
U53G U62G | 0.558
C57G U69A | 0.381
C57G U69G | 0.473
U53G U64A | 0.604
U53A C54U | 0.882
U53A C54A | 0.907
G50U U62C | 0.866
C57A U62A | 0.32
G56U U64A | 0.612
G56U U64G | 0.753
C54A A59G | 0.858
C54A A59C | 0.365
C54A A59U | 0.497
C54U A59C | 0.678
A52U U62C | 0.765
G56C G58A | 0.76
G56C G58U | 0.917
G56C G58C | 0.907
U55G C63U | 0.626
A52G A59C | 0.793
A52G A59G | 0.98

Variant | self-cleavage
A52G A59U | 0.82
U55A U64A | 0.532
C54G U69C | 1.04
C54A G65C | 0.514
C57U C63U | 0.34
C57A U64G | 0.384
A52C G58C | 0.986
A52C G58A | 0.887
U53C G65U | 0.429
U55A C63U | 0.736
U55G U67G | 0.826
C54A U69G | 1.01
G56A G68U | 1.04
G56A G68C | 0.992
C57U C66U | 0.42
A51C A60C | 0.477
G56U C66U | 0.872
G56U C66G | 0.552
C54A C66G | 0.466
A52G U53G | 0.72
A52G U53C | 0.892
A51G G56A | 0.91
A51G G56C | 0.69
A51C C54A | 0.582

Variant | self-cleavage
U53A U55G | 0.411
U53A U55C | 0.43
A51G U61C | 0.777
G56A C63A | 0.648
G58A G68C | 0.978
G58A G68U | 0.962
U53A U61G | 0.581
A51G A60C | 0.373
U55G U64G | 0.491
C57G A59C | 0.3
G56U U69G | 1.02
U53C C63U | 0.786
U53C U67A | 0.793
U53C U67C | 0.872
U53C U67G | 0.822
G58A | 0.965
G58A C63A | 0.748
A52G G58C | 0.972
A52C G56A | 0.826
A52U C63U | 0.954
U55G U61A | 0.497
C54U U64A | 0.905
C54U U64C | 0.92
C54U U64G | 0.924

Variant | self-cleavage
U53A C57A | 0.402
A52U C54U | 0.976
G56C C63G | 0.456
G56C C63U | 0.709
G56C C63A | 0.47
G56A A59C | 0.432
A52U G68A | 0.975
G50U U64C | 0.947
G50U U64G | 0.864
U53G U69A | 0.982
C54U C63U | 1.02
U53G G58A | 0.818
A51U U55G | 0.662
C54G C66A | 0.514
C54G C66G | 0.533
U53A C66A | 0.509
U53A G56A | 0.736
U53A G56C | 0.411
C57A U67C | 0.25
C57A U67A | 0.275
C57A G65U | 0.399
C57A G65C | 0.4
U55C G68A | 0.961
C54G U62G | 0.609

Variant | self-cleavage
C54G U62C | 0.483
U53G U55G | 0.386
G56U U61C | 0.383
G56U U61G | 0.548
C54A G56C | 0.431
C54A G58A | 0.883
C57A A60G | 0.347
A52U G58A | 0.939
C54U G58U | 1.02
U55C G56C | 0.583
U55C G56A | 0.996
A51U C63A | 0.797
C57U U61A | 0.406
C57G A60C | 0.258
C54G U67A | 0.938
U55G G58U | 0.946
A52G G68U | 0.988
A52C U64A | 0.875
U53A U69C | 1.06
C54U U55G | 0.806
A51G G58A | 0.949
A51U A59G | 0.993
A51U C57A | 0.374
A52U U67A | 0.978

Variant | self-cleavage
A51U U61C | 0.808
A51U G65C | 0.674
A52C U67G | 1
A52C U67C | 1
A52C C63A | 0.795
A51C G56C | 0.57
A51C U53G | 0.703
C54G U64C | 0.542
C54G U64A | 0.63
C54A U64G | 0.471
U55G G56C | 0.729
U55G G56U | 0.817
C54U U69A | 1.04
A52G C66G | 0.966
C54A U67G | 0.887
C54A U67C | 0.887
A51G U69C | 1.06
C54G G65C | 0.503
G56A U64C | 0.777
G56A U64G | 0.828
A51U U53A | 0.918
C57G C63G | 0.285
C57G C63U | 0.356
